The values below come from article PMC9546532 (Proceedings of the National Academy of Sciences of the …, 2022).

The target in this test is T1, Ela1^(1-143) of the Elc1/Ela1^(1-143) complex (separate chains) (S. cerevisiae, UniProt P53861 1-143).
T1 sequence (looked up): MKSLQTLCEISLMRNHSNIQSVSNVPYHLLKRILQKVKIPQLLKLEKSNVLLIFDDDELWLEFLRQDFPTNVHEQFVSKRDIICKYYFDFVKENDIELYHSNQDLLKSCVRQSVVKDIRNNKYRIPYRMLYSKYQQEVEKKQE
The experiment in a line: SEC + AUC.

B1: Elc1 of the Elc1/Ela1^(1-143) complex (separate chains) (natural protein, S. cerevisiae, UniProt Q03071 1-99, looked up)
chain: MSQDFVTLVSKDDKEYEISRSAAMISPTLKAMIEGPFRESKGRIELKQFDSHILEKAVEYLNYNLKYSGVSEDDDEIPEFEIPTEMSLELLLAADYLSI
Regarding B1, the binding result is “binds”.
